The results in this text go back to patent US20130287781A1 (GlaxoSmithKline, published 2013).

For orientation: Kd means a measure of binding affinity in units of concentration. In general, EC50 (read off the curve) refers to the concentration at which the effect is half-maximal. As a reminder, the koff is a measure of how fast the partners let go of each other. By kon is commonly meant the rate constant with which the complex forms.

In test [1] the target is T1, Marmoset NOGO (A56) plus GST tag (marmoset).
T1 construct: also called GST-NOGO-A56 from marmoset
In words: SPR (Biacore T100), Nogo-A orthologue amine-coupled to CM5, antibody 0.125-8 nM flowed over; mean. For orientation: Surface plasmon resonance follows binding to a sensor surface in real time, without labels.
Text: (§1) Approximately 140-180RUs of the various Nogo-A orthologues were captured to the CM5 chip by primary amine coupling. […] The values show the mean and standard deviation (in brackets) of 1-2 independent runs carried out in duplicate with each data set independently analysed prior to calculation of the mean and standard deviation.

Test [2] deals with T2, Squirrel monkey NOGO (A56) plus GST tag (squirrel monkey).
T2 construct: also called GST-NOGO-A56 from squirrel monkey
The test is described as above.
Text: as §1

In test [3] the target is T3, Rat NOGO (A56) plus GST tag (rat).
T3 construct: also called GST-NOGO-A56 from rat
Described as above.
Text: as §1

The target of test [4] is T4, Cynomolgus monkey NOGO (A56) plus GST tag (cynomolgus monkey).
T4 construct: also called cynomolgus Nogo-A; GST-NOGO-A56 from cynomolgus
The test is described as above.
Text: as §1

For test [5], the target named is T5, GST-human NOGO-A56 (human).
T5 construct: Expressed in E. coli BL21 from pGEX-6P1 and purified on glutathione-sepharose; the GST tag is part of the protein in the assays; also called GST-Nogo-A 5+6; GST Nogo-A 5 + 6
Kind of test: direct ELISA, GST-human NOGO-A56 coated at 1.0 mcg/ml, purified antibody, OD490. (In general: ELISA stands for enzyme-linked immunosorbent assay.)
Experimental: (§2) Wells were rinsed once with TBS+0.05% Tween (TBST) then incubated with 2% BSA in TBST to block non-specific binding sites at room temperature for 1 hour. Antibodies were diluted in TBST+2% BSA to 10 μg/ml and ½ dilutions made from this. Antibodies were added to wells in duplicate and incubated at room temperature for 1 hour. […] The wells were washed three times with TBST and then incubated with 100 μl OPD peroxidase substrate (Sigma) per well for 10 minutes. The colour reaction was stopped by the addition of 25 μl concentrated H₂SO₄. Optical density at 490 nm was measured using a plate reader. Background values read from wells with no antibody were subtracted.

In test [6] the target is T6, Human C1q (Sigma, C0660) (human, UniProt P02745 23-245; P02746 28-253; P02747 29-245).
T6 construct: Bought protein
Kind of test: C1q ELISA: antibody coated at 1 mcg/ml, human C1q added, anti-human C1q-HRP, Abs490.
Text: ELISA plates were coated with a fixed concentration of the purified humanised and control antibodies (1 mcg/ml).

The target in test [7] is T5, GST-human NOGO-A56. In words: competition ELISA on coated GST-Nogo-A 5+6; competitor 2A10 pre-mixed, bound 2A10 detected with anti-mouse IgG-HRP.
Text: Recombinant human Nogo-A (GST-Nogo-A 5+6) was coated to the plates. […] IC50 values were derived using Robosage.
Test [8] deals with T5, GST-human NOGO-A56. Kind of test: SPR (Biacore T100), reverse format: antibody captured by Protein A, GST Nogo-A 5+6 0.125-8 nM flowed over; mean (SD in brackets).
Text: Protein A was immobilised to approximately 4000RUs by primary amine and used to capture 200-300RUs of the sample antibodies. […] The values show the mean and standard deviation (in brackets) of three independent runs in duplicate. Each data set was independently analysed prior to the calculation of the mean and standard deviation.
For test [9], the target named is T5, GST-human NOGO-A56. In words: SPR (Biacore), GST-human NOGO-A56 amine-coupled to CM5, antibody flowed over, 25 C.
Experimental: (§3) GST-human NOGO-A56 was immobilised to a CM5 chip by primary amine coupling using the Biacore Wizard program designed for targeted immobilisation levels. The CM5 sensor surface was activated by passing a solution of 50 mM N-hydroxy-succinimide (NHS) and 200 mM N-ethyl-N′-dimethylaminopropyl carbonide (EDC). Then GST-human NOGO-A56 in sodium acetate buffer, pH5.0 or pH 4.5, was passed over the chip and immobilised. After immobilisation was complete any still activated esters were blocked by an injection of 1M ethanolamine hydrochloride, pH8.5.
The anti-NOGO mAbs were diluted down in HBS-EP (10 mM HEPES, pH 7.4, 150 mM NaCl, 3 mM EDTA, and 0.005% P-20 surfactant) for the BIAcore 3000 or HBS-EP+ (10 mM HEPES, pH 7.4, 150 mM NaCl, 3 mM EDTA, and 0.05% P-20 surfactant) in the case of the T100 and binding studies were carried out at range of defined antibody concentrations. All runs were referenced against a blanked sensor surface (one that had been activated and blocked as described earlier but had no addition of ligand). Analysis of binding was carried out using the BIAevaluation kinetic analysis software version 4.1 for the BIAcore 3000 and T100 kinetic analysis software version 1.0. […] Unless otherwise stated, the BIAcore experiments were performed at 25° C.
Test [10] has as its target T1, Marmoset NOGO (A56) plus GST tag. In words: SPR (Biacore), reverse format: antibody captured by Protein A; end of the range tied to marmoset by Table 19.
Text: (§4) Protein A was immobilised on the surface at about 4000RUs and anti-Nogo-A antibodies were captured at approximately 300-400RUs. […] All the runs were done in duplicates. The values show the mean and standard deviation (in brackets) of 1-3 independent runs with each run done in duplicate and each data set analysed independently prior to calculation of the mean and standard deviation.
In test [11] the target is T3, Rat NOGO (A56) plus GST tag. In words: SPR (Biacore), reverse format: antibody captured by Protein A.
Text: as §4
The target of test [12] is T4, Cynomolgus monkey NOGO (A56) plus GST …. The description is as above.
Text: as §4
For test [13], the target named is T5, GST-human NOGO-A56. Kind of test: direct ELISA, GST-Nogo-A 5+6 coated at 1.0 mcg/ml, anti-human IgG-HRP, Abs490.
Experimental: as §2
Test [14] deals with T5, GST-human NOGO-A56. In words: competition ELISA on coated GST-Nogo-A 5+6; competitor 2A10 pre-mixed, bound 2A10 detected with anti-mouse IgG-HRP. This is another data set of the same source.
Test [15] concerns the target T2, Squirrel monkey NOGO (A56) plus GST tag. Kind of test: direct ELISA on GST-NOGO-A56 from squirrel monkey, Abs490.
The target is the same in test [16]. In words: SPR (Biacore), reverse format: antibody captured by Protein A; end of the range tied to squirrel monkey by Table 19.
Text: as §4
The target of test [17] is T5, GST-human NOGO-A56. In words: SPR (Biacore), GST-human NOGO-A56 amine-coupled to CM5, antibody flowed over, 37 C.
Test [18] addresses T7, peptide 6 (biotin-SGSG-TPSPVLPDIVMEAPLN) (human, N-terminal biotin).
T7 peptide: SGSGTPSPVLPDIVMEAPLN
In words: peptide ELISA: biotinylated 16-mer peptide on streptavidin, antibody at 5 ug/ml, kappa-chain peroxidase conjugate, Abs490.
Experimental: (§5) Streptavidin at 5 μg/ml in sterile water was coated onto Nunc immunosorp plates (100 μl per well) at 37° C. overnight. The plates were rinsed 3 times with PBS containing 0.05% Tween (PBST) then blocked with 3% BSA in PBST at 4° C. overnight. The plates were washed 3 times with PBST. Peptides were then added to the wells at a concentration of approximately 10 μg/ml (diluted in 3% BSA in PBST) and incubated at room temperature for 1 hour. The plates were washed 3 times with PBST then incubated for 1 hour with anti-NOGO antibodies diluted to 5 μg/ml in 3% BSA in PBST. […] The plates were washed 3 times with PBST and then incubated with 100 μl OPD peroxidase substrate (Sigma) per well for 10 minutes. The colour reaction was stopped by the addition of 50 μl 3 molar H₂SO₄. Absorbance at 490 nm was measured using a plate reader.

Test [19] concerns the target T8, peptide 7 (biotin-SGSG-VLPDIVMEAPLNSAVP) (human, N-terminal biotin).
T8 peptide: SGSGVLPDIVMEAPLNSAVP
The description is as above.
Experimental: as §5

Test [20] has as its target T5, GST-human NOGO-A56. Kind of test: SPR (Biacore) off-rate on NOGO chip, panel of H6FL CDR H3 variants with L13FL.
In test [21] the target is T5, GST-human NOGO-A56. Kind of test: SPR (Biacore) off-rate ranking on GST-human NOGO-A56 chip, one experiment.
Experimental: as §3
The GST-human NOGO-A56 chip was prepared as for kinetic analysis. Cell supernatants where taken directly from transient transfections of CHO-K1 cells. These were passed directly over the sensor surface and the interaction measured. A mock transfected cell supernatant was used for double referencing to remove any artefacts due to the tissue culture media. All runs were referenced against a blanked sensor surface (one that had been activated and blocked as described earlier but had no addition of ligand). Analysis of binding was carried out using the BIAevaluation kinetic analysis software version 4.1.
For test [22], the target named is T3, Rat NOGO (A56) plus GST tag. Kind of test: SPR (Biacore), both formats.
Text: as §1
(§6) Protein A was immobilised on the surface at about 4000RUs and anti-Nogo-A antibodies were captured at approximately 300-400RUs. […] All the runs were done in duplicates.
The target of test [23] is T4, Cynomolgus monkey NOGO (A56) plus GST …. Kind of test: SPR (Biacore), both formats.
Text: as §1, §6
Test [24] concerns the target T5, GST-human NOGO-A56. Kind of test: direct ELISA, human NOGO-A (GST-human NOGO-A56) coated at 1 ug/ml, Abs490.

Where two headings read alike, the source gives them in different places.

T3 sequence (chain, as listed by the source limits assumed): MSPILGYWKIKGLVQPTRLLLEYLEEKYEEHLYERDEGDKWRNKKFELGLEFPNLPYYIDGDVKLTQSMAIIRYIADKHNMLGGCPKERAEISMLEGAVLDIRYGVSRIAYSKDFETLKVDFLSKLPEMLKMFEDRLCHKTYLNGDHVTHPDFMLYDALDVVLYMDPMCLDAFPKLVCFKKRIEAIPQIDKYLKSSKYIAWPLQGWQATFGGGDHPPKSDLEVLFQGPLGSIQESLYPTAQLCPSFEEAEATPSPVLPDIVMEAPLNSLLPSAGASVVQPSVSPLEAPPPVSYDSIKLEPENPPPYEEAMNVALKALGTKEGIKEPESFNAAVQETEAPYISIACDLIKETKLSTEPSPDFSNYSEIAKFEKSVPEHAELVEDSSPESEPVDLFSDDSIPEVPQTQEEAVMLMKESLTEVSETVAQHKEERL
T1 sequence (chain, as listed by the source limits assumed): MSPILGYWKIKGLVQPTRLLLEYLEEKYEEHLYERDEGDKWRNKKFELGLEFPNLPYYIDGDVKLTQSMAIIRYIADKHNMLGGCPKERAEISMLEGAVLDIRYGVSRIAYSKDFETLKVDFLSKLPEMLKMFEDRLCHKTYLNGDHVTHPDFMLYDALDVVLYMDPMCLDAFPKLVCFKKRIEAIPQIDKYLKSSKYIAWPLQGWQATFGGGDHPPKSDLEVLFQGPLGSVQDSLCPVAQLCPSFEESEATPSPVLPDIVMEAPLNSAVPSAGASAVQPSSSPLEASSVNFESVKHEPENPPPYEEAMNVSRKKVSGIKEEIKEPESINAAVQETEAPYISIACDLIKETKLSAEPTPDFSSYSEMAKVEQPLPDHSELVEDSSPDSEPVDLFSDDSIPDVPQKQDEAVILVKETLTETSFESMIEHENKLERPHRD
T2 sequence (chain, as listed by the source limits assumed): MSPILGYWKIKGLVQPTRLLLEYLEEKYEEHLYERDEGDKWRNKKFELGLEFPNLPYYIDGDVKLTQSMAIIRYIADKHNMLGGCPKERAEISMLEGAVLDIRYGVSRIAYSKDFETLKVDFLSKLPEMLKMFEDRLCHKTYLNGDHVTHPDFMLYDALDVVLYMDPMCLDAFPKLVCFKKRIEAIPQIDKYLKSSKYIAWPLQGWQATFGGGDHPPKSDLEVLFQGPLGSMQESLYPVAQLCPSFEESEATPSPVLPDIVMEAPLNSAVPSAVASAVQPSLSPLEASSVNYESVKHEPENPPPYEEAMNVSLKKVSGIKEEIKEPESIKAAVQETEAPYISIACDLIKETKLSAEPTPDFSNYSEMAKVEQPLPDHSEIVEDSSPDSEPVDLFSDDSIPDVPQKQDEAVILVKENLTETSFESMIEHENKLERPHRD
T4 sequence (chain, as listed by the source limits assumed): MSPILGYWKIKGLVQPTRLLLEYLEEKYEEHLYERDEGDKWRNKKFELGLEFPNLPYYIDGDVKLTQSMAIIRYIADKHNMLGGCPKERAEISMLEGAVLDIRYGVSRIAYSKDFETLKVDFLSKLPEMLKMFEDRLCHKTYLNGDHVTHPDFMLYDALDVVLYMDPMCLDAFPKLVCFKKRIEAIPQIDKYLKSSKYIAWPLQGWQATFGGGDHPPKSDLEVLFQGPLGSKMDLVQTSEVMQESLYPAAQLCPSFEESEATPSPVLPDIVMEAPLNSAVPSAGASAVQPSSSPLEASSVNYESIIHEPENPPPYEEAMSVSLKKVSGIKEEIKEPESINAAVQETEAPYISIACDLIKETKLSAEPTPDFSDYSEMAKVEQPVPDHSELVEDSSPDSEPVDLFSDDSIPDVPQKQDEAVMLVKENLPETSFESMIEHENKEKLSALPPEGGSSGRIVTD
T5 sequence (chain, as listed by the source limits assumed): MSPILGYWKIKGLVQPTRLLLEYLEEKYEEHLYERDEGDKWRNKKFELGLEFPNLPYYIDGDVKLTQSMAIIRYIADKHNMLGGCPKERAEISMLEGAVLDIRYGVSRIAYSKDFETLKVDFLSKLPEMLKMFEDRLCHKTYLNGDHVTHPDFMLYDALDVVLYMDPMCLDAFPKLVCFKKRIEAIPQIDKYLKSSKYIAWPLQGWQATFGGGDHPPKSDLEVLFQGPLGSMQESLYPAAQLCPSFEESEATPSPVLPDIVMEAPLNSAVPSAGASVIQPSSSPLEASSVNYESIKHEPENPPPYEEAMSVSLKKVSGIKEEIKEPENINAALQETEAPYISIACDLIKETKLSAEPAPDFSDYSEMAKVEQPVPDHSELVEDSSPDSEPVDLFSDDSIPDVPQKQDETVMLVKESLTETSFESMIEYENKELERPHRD
T6 sequence (P02745 23-245 limits assumed, chain 1 of 3): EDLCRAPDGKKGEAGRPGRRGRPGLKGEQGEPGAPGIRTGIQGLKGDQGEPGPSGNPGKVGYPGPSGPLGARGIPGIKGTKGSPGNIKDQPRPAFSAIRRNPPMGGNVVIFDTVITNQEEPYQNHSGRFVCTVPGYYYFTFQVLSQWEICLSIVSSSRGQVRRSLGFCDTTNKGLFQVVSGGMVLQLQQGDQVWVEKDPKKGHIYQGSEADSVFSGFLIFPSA
T6 sequence (P02746 28-253 limits assumed, chain 2 of 3): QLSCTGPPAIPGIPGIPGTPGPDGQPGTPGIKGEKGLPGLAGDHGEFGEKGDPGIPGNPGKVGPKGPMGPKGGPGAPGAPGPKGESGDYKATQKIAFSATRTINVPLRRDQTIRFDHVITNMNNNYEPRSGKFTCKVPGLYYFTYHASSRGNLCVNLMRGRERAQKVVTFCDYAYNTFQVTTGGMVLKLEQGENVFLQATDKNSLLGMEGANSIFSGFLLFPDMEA
T6 sequence (P02747 29-245 limits assumed, chain 3 of 3): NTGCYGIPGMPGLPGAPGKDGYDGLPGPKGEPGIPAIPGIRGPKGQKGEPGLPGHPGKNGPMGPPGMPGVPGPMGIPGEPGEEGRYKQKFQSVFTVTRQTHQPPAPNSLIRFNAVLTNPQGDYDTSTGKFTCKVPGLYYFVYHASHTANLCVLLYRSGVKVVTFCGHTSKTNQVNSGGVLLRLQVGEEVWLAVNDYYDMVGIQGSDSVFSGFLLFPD

B1: H28L16 (antibody, human IgG1, kappa)
heavy: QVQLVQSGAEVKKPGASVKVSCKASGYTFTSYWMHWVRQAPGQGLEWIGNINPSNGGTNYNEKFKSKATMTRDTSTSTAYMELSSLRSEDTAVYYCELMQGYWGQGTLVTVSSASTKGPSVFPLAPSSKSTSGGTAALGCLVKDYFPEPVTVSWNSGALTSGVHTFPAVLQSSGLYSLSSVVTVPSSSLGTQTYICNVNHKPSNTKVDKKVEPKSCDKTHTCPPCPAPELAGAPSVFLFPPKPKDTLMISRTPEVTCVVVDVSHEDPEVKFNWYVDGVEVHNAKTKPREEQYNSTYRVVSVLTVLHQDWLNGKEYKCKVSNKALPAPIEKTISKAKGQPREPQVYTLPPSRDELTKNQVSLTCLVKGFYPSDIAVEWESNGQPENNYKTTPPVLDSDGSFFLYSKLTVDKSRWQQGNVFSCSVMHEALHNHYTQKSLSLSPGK
light: DIVMTQSPLSNPVTLGQPVSISCRSSKSLLYKDGKTYLNWFLQRPGQSPQLLIYLMSTRASGVPDRFSGGGSGTDFTLKISRVEAEDVGVYYCQQLVEYPLTFGQGTKLEIKRTVAAPSVFIFPPSDEQLKSGTASVVCLLNNFYPREAKVQWKVDNALQSGNSQESVTEQDSKDSTYSLSSTLTLSKADYEKHKVYACEVTHQGLSSPVTKSFNRGEC
notes: IgG1 (L235A, G237A) / kappa; CAMPATH-1H signal (1-19) left out; also called H28FL L16FL; NOGO H28L16
As for B1, the Kd was 0.626 nM in [1]; 0.61 nM in [2]; 0.33 nM in test [3]; 0.67 nM in [4]; 0.34 nM in test [8]; 0.61 nM in [9]. For the same molecule, binding in test [17] was characterised by a dissociation constant (Kd) of 0.678 nM. Besides, the 50% effective concentration (EC50 (read off the curve)) was roughly 0.06 µg/mL in [5], roughly 0.03 µg/mL in test [13] and roughly 0.05 µg/mL in [15]. For the same molecule, the binding result in [6], in test [18] and in test [19] was “binds” each time. Moreover, the “IC50 (read off the curve)” value in test [7] and in test [14] was roughly 4 µg/mL each time. The dissociation rate constant (koff) in test [9] came out at 0.00264 s⁻¹; in [17], 0.00524 s⁻¹. The kon in test [9] came to 4.33e+06 M⁻¹ s⁻¹; in [17], 7.73e+06 M⁻¹ s⁻¹. Also, the “fold lower affinity than for human Nogo-A” value is 12 fold in test [10], roughly 4 fold in test [11], 8.5 fold in test [12] and 17 fold in [16].

B2: HcLc (chimera of 2A10: murine 2A10 VH and VL with human IgG constant regions) (antibody, V domains shown)
VH: QVQLQQPGTELVKPGASVKLSCKASGYTFTSYWMHWVKQRPGQGLEWIGNINPSNGGTNYNEKFKSKATLTVDKSSSTAYMQLSSLTSEDSAVYYCELGQGYWGQGTLVTVSS
VL: DIVITQDELSNPVTSGESVSISCRSSKSLLYKDGKTYLNWFLQRPGQSPQLLIYLMSTRASGVSDRFSGSGSGTDFTLEISRVKAEDVGVYYCQQLVEYPLTFGAGTKLELKR
notes: also called chimeric antibody; chimeric form of the parental antibody
Take B2: the equilibrium dissociation constant (Kd) amounted to 1.42 nM in [1]; 1.54 nM in [2]; 1.12 nM in test [3]; 1.68 nM in [4]; 0.41 nM in test [8]; 1.18 nM in test [9]. Also, binding in test [17] was characterised by a dissociation constant (Kd) of 1.46 nM. The koff in [20] amounted to 0.00558 s⁻¹; in test [21] it was 0.00266 s⁻¹; in test [9], 0.00313 s⁻¹; in test [17], 0.00774 s⁻¹. Further, the “EC50 (read off the curve)” value in [5] is roughly 0.06 µg/mL; in test [13] it was roughly 0.08 µg/mL; in [15] it was roughly 0.07 µg/mL; in test [24] it was roughly 0.04 µg/mL. In addition, the entries for the “fold of the affinity for human Nogo-A” value in test [22] and in [23] were no more than 4 fold and no more than 8.5 fold, respectively. Besides, the kon in test [9] came out at 2.66e+06 M⁻¹ s⁻¹; in test [17], 5.08e+06 M⁻¹ s⁻¹.
